Values of other authors as cited in paper PMC9240770.

Target: TREM-1 (Mus musculus) (UniProt Q9JKE2)
Assay: SPR

Chain of UniProt Q9JKE2 (Q9JKE2 21-230): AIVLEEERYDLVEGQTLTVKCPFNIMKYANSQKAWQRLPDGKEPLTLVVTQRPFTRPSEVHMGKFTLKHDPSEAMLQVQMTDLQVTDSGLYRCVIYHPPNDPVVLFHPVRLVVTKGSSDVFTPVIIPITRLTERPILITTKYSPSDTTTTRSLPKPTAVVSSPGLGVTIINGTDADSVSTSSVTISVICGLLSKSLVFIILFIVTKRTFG

Substance	Kd
CIRP (from UniProt P60824)	0.117 µM
HMGB1 (from UniProt P63158)	35.4 µM
